Experiments:
[1] = biological target: carcinoembryonic antigen (CEA) (UniProt P06731); experiment: SEC-HPLC; the conjugate without CEA eluted at 10.312 min and 10.331 min in serum
[2] = biological target: somatostatin receptors on AR42J cells (rat); experiment: apparent IC50; competition with ^111In(DTPA-octreotide) on AR42J cells, 3 h at RT
[3] = biological target: gastrin-releasing peptide receptor on PC-3 cells (UniProt P30550); experiment: competition with ^125I-BBN for binding to PC-3 cells, inhibitor 250 to 2 nM
Chain of UniProt P30550 (P30550 whole entry): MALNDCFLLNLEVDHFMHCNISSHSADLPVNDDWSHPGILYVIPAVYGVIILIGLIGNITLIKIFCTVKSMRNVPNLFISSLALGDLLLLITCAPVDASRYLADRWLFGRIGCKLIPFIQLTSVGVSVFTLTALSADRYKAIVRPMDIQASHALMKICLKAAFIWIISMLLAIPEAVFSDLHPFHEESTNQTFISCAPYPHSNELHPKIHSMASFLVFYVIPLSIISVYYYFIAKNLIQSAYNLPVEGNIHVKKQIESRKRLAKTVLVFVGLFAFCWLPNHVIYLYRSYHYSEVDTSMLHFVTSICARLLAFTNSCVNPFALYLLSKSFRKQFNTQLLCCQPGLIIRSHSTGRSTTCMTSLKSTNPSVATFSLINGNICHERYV

[4] = biological target: gastrin-releasing peptide receptor on PC-3 cells (UniProt P30550); experiment: competition with ^125I-Bombesin for binding to 3x10^6 PC-3 cells, inhibitor 56 to 0.44 nM

Chain of UniProt P06731 (P06731 35-685 limits assumed): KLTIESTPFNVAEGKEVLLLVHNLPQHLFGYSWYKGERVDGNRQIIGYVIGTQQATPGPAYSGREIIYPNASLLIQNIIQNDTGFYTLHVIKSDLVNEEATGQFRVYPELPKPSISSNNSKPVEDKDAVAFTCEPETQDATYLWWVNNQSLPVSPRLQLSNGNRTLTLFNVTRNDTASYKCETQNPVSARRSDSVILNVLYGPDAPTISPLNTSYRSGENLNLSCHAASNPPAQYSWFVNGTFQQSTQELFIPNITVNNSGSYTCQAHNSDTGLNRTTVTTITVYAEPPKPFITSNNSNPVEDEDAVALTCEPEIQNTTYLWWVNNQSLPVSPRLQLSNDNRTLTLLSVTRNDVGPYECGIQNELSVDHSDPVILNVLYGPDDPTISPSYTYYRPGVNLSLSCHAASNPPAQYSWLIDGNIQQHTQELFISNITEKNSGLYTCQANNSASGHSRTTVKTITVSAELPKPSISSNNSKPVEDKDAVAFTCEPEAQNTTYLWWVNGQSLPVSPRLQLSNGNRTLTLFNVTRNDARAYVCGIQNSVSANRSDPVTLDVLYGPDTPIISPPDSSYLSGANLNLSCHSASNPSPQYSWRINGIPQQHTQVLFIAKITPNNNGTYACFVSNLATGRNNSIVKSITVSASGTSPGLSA

| IC50 [2] [nM] | IC50 [3] [nM] | Substance | other results |
| --- | --- | --- | --- |
| – | – | Al^18F(NODA-MPAES)-hMN-14 Fab' | SEC-HPLC retention time of the major product after adding CEA [1]: 7.21 min |
| 3.6 | – | Al^19F(IMP466) (Al^19F complex of NOTA-D-Phe-Cys-Phe-D-Trp-Lys-Thr-Cys-Throl) (peptide) | – |
| – | 35.9 | IMP468 (NOTA-NH-(CH2)7CO-Gln-Trp-Val-Trp-Ala-Val-Gly-His-Leu-Met-NH2) (peptide) | IC50 [4]: 21.5 nM |
| 13 | – | ^69Ga(IMP466) (^69Ga complex of NOTA-D-Phe-Cys-Phe-D-Trp-Lys-Thr-Cys-Throl) (peptide) | – |
| 6.3 | – | ^115In(DTPA-octreotide) (peptide) | – |
| – | 24.4 | commercially available BBN peptide (bombesin positive control) | – |

From patent EP2651411B1
